Reference: patent publication US20210221875A1 (Chugai, published 2021)

T1: soluble human IL-6R (human, UniProt P08887 20-357)
T1 construct: also called hsIL-6R; recombinant human IL6R
T1 sequence: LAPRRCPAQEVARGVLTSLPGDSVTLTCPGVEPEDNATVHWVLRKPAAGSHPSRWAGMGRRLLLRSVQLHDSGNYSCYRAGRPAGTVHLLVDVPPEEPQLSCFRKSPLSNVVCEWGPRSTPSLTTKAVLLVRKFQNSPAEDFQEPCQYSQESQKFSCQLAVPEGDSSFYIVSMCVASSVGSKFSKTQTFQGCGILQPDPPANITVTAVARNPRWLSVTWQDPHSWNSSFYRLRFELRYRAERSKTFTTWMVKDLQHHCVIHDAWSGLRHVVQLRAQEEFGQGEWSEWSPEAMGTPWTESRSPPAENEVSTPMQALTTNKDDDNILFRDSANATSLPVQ


Each binder was assayed against T1, soluble human IL-6R (assay: BLI (Octet), in the same way as in Example 3).

Row | Binder | binding result
1 | 20A11-G1m/VK1-39-k0MT (antibody, human IgG1, kappa, V domains shown, IgG antibody-like molecule: anti-IL6R VHH 20A11 fused with human IgG1 CH1-hinge-CH2-CH3) VH: EVQLVESGGGLVQPGGSLRLSCAASGSVFKINVMAWYRQAPGKGRELVAGIISGGSTSYADSVKGRFTISRDNAKNTLYLQMNSLRPEDTAVYYCAFITTESDYDLGRRYWGQGTLVTVSS VL: DIQMTQSPSSLSASVGDRVTITCRASQSISSYLNWYQQKPGKAPKLLIYAASSLQSGVPSRFSGSGSGTDFTLTISSLQPEDFATYYCLQFDSYPLTFGGGTKVEIKR | binds
2 | 20A11-G1m/VK2-28-k0MT (antibody, human IgG1, kappa, V domains shown, IgG antibody-like molecule with VHH 20A11 in place of VH) VH: EVQLVESGGGLVQPGGSLRLSCAASGSVFKINVMAWYRQAPGKGRELVAGIISGGSTSYADSVKGRFTISRDNAKNTLYLQMNSLRPEDTAVYYCAFITTESDYDLGRRYWGQGTLVTVSS VL: not shown | binds
3 | 20A11-G1m/VL1-40-lamL (antibody, human IgG1, lambda, V domains shown, IgG antibody-like molecule with VHH 20A11 in place of VH) VH: EVQLVESGGGLVQPGGSLRLSCAASGSVFKINVMAWYRQAPGKGRELVAGIISGGSTSYADSVKGRFTISRDNAKNTLYLQMNSLRPEDTAVYYCAFITTESDYDLGRRYWGQGTLVTVSS VL: QSVLTQPPSVSGAPGQRVTISCTGSSSNIGAGYDVHWYQQLPGTAPKLLIYGNSNRPSGVPDRFSGSKSGTSASLAITGLQAEDEADYYCQSYDNSLNAVVFGGGTKLTVLG | binds
4 | 20A11-G1m/VL2-14-lamL (antibody, human IgG1, lambda, V domains shown, IgG antibody-like molecule with VHH 20A11 in place of VH) VH: EVQLVESGGGLVQPGGSLRLSCAASGSVFKINVMAWYRQAPGKGRELVAGIISGGSTSYADSVKGRFTISRDNAKNTLYLQMNSLRPEDTAVYYCAFITTESDYDLGRRYWGQGTLVTVSS VL: QSALTQPASVSGSPGQSITISCTGTSSDVGGYNYVSWYQQHPGKAPKLMIYEVSNRPSGVSNRFSGSKSGNTASLTISGLQAEDEADYYCSSYRSGYTLVVFGGGTKLTVLG | binds
5 | 20A11-G1m/VL1-44-lamL (antibody, human IgG1, lambda, V domains shown, IgG antibody-like molecule with VHH 20A11 in place of VH) VH: EVQLVESGGGLVQPGGSLRLSCAASGSVFKINVMAWYRQAPGKGRELVAGIISGGSTSYADSVKGRFTISRDNAKNTLYLQMNSLRPEDTAVYYCAFITTESDYDLGRRYWGQGTLVTVSS VL: not shown | binds

Each binder was assayed against T2, biotin-rabbit aggrecan G1-IGD-G2-3xFlag (rabbit, UniProt Q28670 17-683, biotin on the N-terminal Avi-tag (BirA co-expression)) (assay: SPR (Biacore T200), 37 C, pH 7.4, antibody captured, Avi RbG1G2 3Flag as analyte, 1:1 model;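 further: antibodies captured at roughly 200 RU on a CM4 or C1 chip through anti-human IgG Fc or Protein A/G, in sodium phosphate NaCl buffer with Tween 20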).
T2 construct: three tandem Flag-tags at the C-terminus and Avi-tag at the N-terminus; also called biotinylated Avi-rabbit aggrecan G1-IGD-G2-3xFLAG; Avi RbG1G2 3FLAG
Protocol: Anti-Human IgG (Fc) antibody was immobilized onto all flow cells of a CM4 sensor chip using Human antibody capture kit (GE Healthcare). Protein A/G was immobilized onto all flow cells of a CM4 or C1 sensor chip using amine coupling kit (GE Healthcare). Antibodies and analytes were prepared in buffer (50 mM Sodium Phosphate, 150 mM NaCl, 0.02% Tween 20, 0.005% NaN3, pH 7.4 or 20 mM Sodium Phosphate, 150 mM NaCl, 0.05% Tween20, 0.005% NaN₃, pH 7.4). Each antibody was captured onto the sensor surface by Anti-Human IgG (Fc) antibody or Protein A/G. Antibody capture levels were aimed at 200 resonance unit (RU). […] Sensor surface was regenerated each cycle with 3 M MgCl₂ or 10 mM Glycine-HCl, pH 1.5.

Row | Binder | Kd | koff | kon
6 | GRA0105Hg-SG1/GRA0105Lg-SK2 (antibody, human IgG1, kappa, full length antibody) heavy: not shown light: AQVLTQTPSPVSAAVGGTVTINCQASQSVYNKNNLAWYQQKPGQPPKLLIYDASKLASGVPSRFKGGGSGTHFTLTISGVQCDDAATYYCQGTYYSSGWYNTFGGGTKVEIKRTVAAPSVFIFPPSDEQLKSGTASVVCLLNNFYPREAKVQWKVDNALQSGNSQESVTEQDSKDCTYSLSSTLTLSKADYEKHKVYACEVTHQGLSSPVTKSFNRGEC | 3.28 nM | 0.000455 s⁻¹ | 139000 M⁻¹ s⁻¹
7 | GRA1013Hhz-SG1/GRA1013Lqz-SK2 (antibody, human IgG1, kappa, full length antibody) heavy: not shown light: DILMTQTPLSLPVSLGDQASISCRSSQSIVHSNGNTYLEWYLQKPGQSPKLLIYKVSNRFSGVPDRFSGSGSGTDFTLKISRVEAEDLGVYYCFQGSHLPLTFGAGTKLELKRTVAAPSVFIFPPSDEQLKSGTASVVCLLNNFYPREAKVQWKVDNALQSGNSQESVTEQDSKDCTYSLSSTLTLSKADYEKHKVYACEVTHQGLSSPVTKSFNRGEC | 256 nM | 0.0147 s⁻¹ | 57600 M⁻¹ s⁻¹
8 | GRA0124Hc0626-SG1/GRA0124Lc0544-SK2021 (antibody, human IgG1, kappa, the row with this full length name is used) heavy: not shown light: AQVLTQTPSSTSVAVGGTVTINCQSSPSVYLNLLAWYQQKPGQPPKLLIYSASFLQSGVPPRFSGSGSGTQFTLTISGVQCADAATYYCAGVYSNNIYTFGGGTKVEIKETVAAPSVFIFPPSDEQLKSGTASVVCLLNNFYPREAEVQWKVDNALQSGNSQESVTEQDSKDCTYSLSSTLTLSKADYEKHKVYACEVTHQGLSSPVTKSFNRGEC | 13.4 nM | 0.000718 s⁻¹ | 53500 M⁻¹ s⁻¹
9 | GRA0124Hc0626-SG1286/GRA0124Lc0544-SK2027 (antibody, human IgG1, kappa, full length antibody) heavy: not shown light: AQVLTQTPSSTSVAVGGTVTINCQSSPSVYLNLLAWYQQKPGQPPKLLIYSASFLQSGVPPRFSGSGSGTQFTLTISGVQCADAATYYCAGVYSNNIYTFGGGTKVEIKETVAAPSVFIFPPSDEQLKSGTASVVCLLNNFYPREAEVQWKVDNALQSGNSQESVTEQDSEDCTYSLSSTLTLSKADYEKHKVYACEVTHQGLSSPVTKSFNRGEC | 15.1 nM | 0.00078 s⁻¹ | 51700 M⁻¹ s⁻¹
10 | GRA0124Hc0626-SG1286/GRA0124Lc0544-SK2025 (antibody, human IgG1, kappa) heavy: not shown light: AQVLTQTPSSTSVAVGGTVTINCQSSPSVYLNLLAWYQQKPGQPPKLLIYSASFLQSGVPPRFSGSGSGTQFTLTISGVQCADAATYYCAGVYSNNIYTFGGGTKVEIKRTVAAPSVFIFPPSDEQLKSGTASVVCLLNNFYPREAEVQWKVDNALQSGNSQESVTEQDSEDCTYSLSSTLTLSKADYEKHKVYACEVTHQGLSSPVTKSFNRGEC | 15.2 nM | 0.000786 s⁻¹ | 51900 M⁻¹ s⁻¹
11 | GRA0124Hc1075-SG1/GRA0124Lc0952-SK2 (antibody, human IgG1, kappa, V domains shown, full length antibody) VH: QSVEESGGDLVTPGTPLTLTCTVDGVDLSNYAIHWVRQAPGKGLEWIGMIRSNGMRYYGTWAKGRFTTSKTSSTTVDLKMTSPTTEDTATYFCARLWNIWGPGTLVTVSS VL: AQVLDQTPSSTSVAVGGTVTINCQSSPSVYLNLLAWYQQKPGQPPKLLIYSASFLQSDVPDRFSGSGDGDQFDLDIDGVQCADAATYYCAGVYSNNIYTFGGGTKVEIKR | 3.68 nM | 0.000267 s⁻¹ | 72700 M⁻¹ s⁻¹
12 | GRA0124Hc0626-SG1/GRA0124Lc0694-SK2 (antibody, human IgG1, kappa, V domains shown, full length antibody) VH: QSVEESGGRLVTPGTPLTLTCTVSGVDLSNYAIHWVRQAPGKGLEWIGMIRSNGMRYYGTWAKGRFTTSKTSSTTVDLKMTSPTTEDTATYFCARLWNIWGPGTLVTVSS VL: AQVLTQTPSSTSVAVGGTVTINCQSSPSVYLNLLAWYQQKPGQPPKLLIYSASALQSGVPPRFSGSGSGTQFTLTISGVQCADAATYYCAGVYSNNIYTFGGGTKVEIKR | 77.5 nM | 0.00202 s⁻¹ | 26100 M⁻¹ s⁻¹
13 | GRA0124Hc0626-SG1265/GRA0124Lc0544-SK2021 (antibody, human IgG1, kappa, the L chain name is printed with both 563 and 564 (564 stands in the row of the Fab SG1265/SK2021)) heavy: not shown light: AQVLTQTPSSTSVAVGGTVTINCQSSPSVYLNLLAWYQQKPGQPPKLLIYSASFLQSGVPPRFSGSGSGTQFTLTISGVQCADAATYYCAGVYSNNIYTFGGGTKVEIKETVAAPSVFIFPPSDEQLKSGTASVVCLLNNFYPREAEVQWKVDNALQSGNSQESVTEQDSKDCTYSLSSTLTLSKADYEKHKVYACEVTHQGLSSPVTKSFNRGEC | 14.4 nM | 0.000757 s⁻¹ | 52700 M⁻¹ s⁻¹
14 | GRA0124Hc0626-SG1/GRA0124Lc0951-SK2 (antibody, human IgG1, kappa, V domains shown, full length antibody) VH: QSVEESGGRLVTPGTPLTLTCTVSGVDLSNYAIHWVRQAPGKGLEWIGMIRSNGMRYYGTWAKGRFTTSKTSSTTVDLKMTSPTTEDTATYFCARLWNIWGPGTLVTVSS VL: AQVLTQTPSSTSVAVGGTVTINCQSSPSVYLNLLAWYQQKPGQPPKLLIYSASFLQSDVPDRFSGSGDGDQFDLDIDGVQCADAATYYCAGVYSNNIYTFGGGTKVEIKR | 4.04 nM | 0.000321 s⁻¹ | 79400 M⁻¹ s⁻¹
15 | GRA0124Hc0626-SG1265/GRA0124Lc0544-SK2 (antibody, human IgG1, kappa, full length antibody) heavy: not shown light: AQVLTQTPSSTSVAVGGTVTINCQSSPSVYLNLLAWYQQKPGQPPKLLIYSASFLQSGVPPRFSGSGSGTQFTLTISGVQCADAATYYCAGVYSNNIYTFGGGTKVEIKRTVAAPSVFIFPPSDEQLKSGTASVVCLLNNFYPREAKVQWKVDNALQSGNSQESVTEQDSKDCTYSLSSTLTLSKADYEKHKVYACEVTHQGLSSPVTKSFNRGEC | 15.9 nM | 0.000837 s⁻¹ | 52700 M⁻¹ s⁻¹
16 | GRA0124Hc0626-SG1286/GRA0124Lc0544-SK2 (antibody, human IgG1, kappa) heavy: not shown light: AQVLTQTPSSTSVAVGGTVTINCQSSPSVYLNLLAWYQQKPGQPPKLLIYSASFLQSGVPPRFSGSGSGTQFTLTISGVQCADAATYYCAGVYSNNIYTFGGGTKVEIKRTVAAPSVFIFPPSDEQLKSGTASVVCLLNNFYPREAKVQWKVDNALQSGNSQESVTEQDSKDCTYSLSSTLTLSKADYEKHKVYACEVTHQGLSSPVTKSFNRGEC | 17 nM | 0.000883 s⁻¹ | 51900 M⁻¹ s⁻¹
